Measurements from the supplement of paper PMC10724198.
Where “and” joins values, the source holds several entries; their conditions need not be identical. Equal values may be shown once. ± gives the standard deviation of the averaged measurements.

How the values were obtained:
[1] = tested on: Saccharomyces cerevisiae; assay: protein stability index of tFT-peptide fusion in wild type (PSI (0-1 scale)); higher = more stable (slower turnover); conditions: genetic background: wild type
[2] = tested on: Saccharomyces cerevisiae; assay: protein stability index of tFT-peptide fusion in deletion strain of DOA10 (PSI (0-1 scale)); higher = more stable (slower turnover)
Description: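 MPS profiling in S. cerevisiae of two library types built from selected 12-aa C-degron peptides (IN1, IN2, LN1, LN3, VN2, R1-R5, W1-W3, Atg1 and Rpa12 C-termini): saturation mutagenesis libraries and C-terminal +1 capping libraries (13 aa). Each peptide is fused to the C-terminus of a sfGFP-mCherry timer, after a GGGS linker. Cells are FACS-sorted into 8 mCherry/sfGFP bins and sequenced. PSI runs from 0 (unstable) to 1 (stable), measured once in wild type and in the das1Δ or doa10Δ background.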

[3] = tested on: Saccharomyces cerevisiae; assay: protein stability index of tFT-peptide fusion (C-terminal peptide) (PSI (0-1 scale)); higher = more stable (slower turnover)
Description: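 MPS profiling in S. cerevisiae of the tFT-X12 degron library: putative degron peptides plus stable controls, 12 aa, fused to the C-terminus of a sfGFP-mCherry timer. Cells are FACS-sorted into 8 mCherry/sfGFP bins and deep-sequenced. PSI runs from 0 (unstable) to 1 (stable). Backgrounds are wild type, das1Δ and doa10Δ at 30 °C, and wild type, das1Δ, cdc34-1 and cdc53-1 at 37 °C; 2-3 technical replicates each.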

[4] = tested on: Saccharomyces cerevisiae; assay: as above; conditions: genetic background: wild type; temperature: 30 C
[5] = tested on: Saccharomyces cerevisiae; assay: protein stability index of tFT-peptide fusion in deletion strain of DAS1 (PSI (0-1 scale)); higher = more stable (slower turnover)
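Throughout, for protein stability index of tFT-peptide fusion (C-terminal peptide): PSI is a weighted mean of sequencing reads over stability bins, variants kept only with over 10 reads, mCherry proximal and sfGFP distal, peptide attached via GGGS linker.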
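Throughout, for protein stability index of tFT-peptide fusion in deletion strain of DAS1: PSI is a weighted mean of each variant's read distribution over the sorted stability bins, computed only for variants having over 10 reads in total.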
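Throughout, for protein stability index of tFT-peptide fusion in deletion strain of DOA10: PSI per variant is the weighted mean of its sequencing read distribution over the sorted stability bins, counting only variants with over 10 reads summed across bins.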
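Throughout, for protein stability index of tFT-peptide fusion in wild type: PSI derived as read-weighted mean over the 8 sorting bins, only variants exceeding 10 total reads kept, mCherry placed adjacent to the peptide and sfGFP distal.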

Sequence	protein stability index [1]	protein stability index [2]	protein stability index [5]	other results
AITLPICPLLLR	0.194	0.667	–	–
GGYMCSVGCWFR	0.439	0.687	–	–
GPYMCSVGCWFR	0.413	0.667	–	–
GLYMGSVGCWFR	0.303	0.704	–	–
AITLPMCPLCLR	0.556	0.702	–	–
RVTRTDAIYFRI	0.499	0.704	–	–
RVFRLDAIYFRI	0.319	0.619	–	–
CLVSLPILKFFR	0.63	0.666	–	–
GLYMCTVGCWFR	0.219	0.527	–	–
CLVSLPILYFFR	0.468	0.605	–	–
RVTRLDAIHFRI	0.66	0.7	–	–
CLVSLPILRFFR	0.612	0.657	–	–
AKTLPMCPLLLR	0.352	0.672	–	–
RSLRVLLPLVFR	0.356	0.676	–	–
CNVSLPILLFFR	0.0527	0.642	–	–
RSLRVLQPLYFR	0.285	0.685	–	–
GLYMCSVGCWFA	0.35	0.371	–	–
RVTRLDAIYFRD	0.688	0.72	–	–
AITLTMCPLLLR	0.386	0.667	–	–
AITLPMCPLLLRY	0.152	0.633	–	–
RVARLDAIYFRI	0.449	0.663	–	–
RSLRVLLPLYFRS	0.3	0.644	–	–
RVTRLDAIYFRC	0.431	0.66	–	–
AITLYMCPLLLR	0.309	0.628	–	–
RLIQPLPVQFLN	0.0747 and 0.0662	–	0.672 and 0.598	protein stability index ([3]; genetic background: cdc34-1, temperature: 37 C): 0.2752 ± 0.002; protein stability index ([3]; genetic background: cdc53-1, temperature: 37 C): 0.644 ± 0.089; protein stability index ([3]; genetic background: das1 deletion, temperature: 30 C): 0.616 ± 0.026; protein stability index ([3]; genetic background: das1 deletion, temperature: 37 C): 0.732 ± 0.066; protein stability index ([3]; genetic background: doa10 deletion, temperature: 30 C): 0.0708 ± 0.018; protein stability index ([3]; genetic background: wild type, temperature: 30 C): 0.0754 ± 0.0037; protein stability index ([3]; genetic background: wild type, temperature: 37 C): 0.0963 ± 0.012; protein stability index [4]: 0.0935 ± 0.0062
RLIQPLPVQCLN	0.173	–	0.478	–

Sequence	protein stability index [1]	protein stability index [2]	protein stability index [5]	other results
CTSCGYKFCTNN	0.377	–	0.698	–
CTSCGYKFRTNNV	0.684	–	0.69	–
RLIQPLPVQFAN	0.353	–	0.62	–
ARWRVGLWRGAE	0.644	–	0.685	–
LVVYLSCKACIN	0.0136	–	0.0225	–
PSLAASFWRHVG	0.181	–	0.704	–
ARWRVGLWRGCS	0.266	–	0.683	–
CTSCGYKFRTNE	0.726	–	0.685	–
ARWSVGLWRGAS	0.448	–	0.692	–
FSMRWTFRYIVN	0.202	–	0.475	–
ITSCGYKFRTNN	0.208	–	0.674	–
KDHKKGQKQKIN	0.0956	–	0.604	–
PDKMNHLIKLLN	0.111	–	0.614	–
KKHKKGQKFKIN	0.158	–	0.572	–
VHGAVGGWRLVG	0.136	–	0.692	–
LVVYLSCVACAN	0.0124	–	0.0251	–
KKCKKGQKQKIN	0.102	–	0.593	–
ARWRVGLWRMAS	0.0865	–	0.683	–
CTSCGMKFRTNN	0.304	–	0.715	–
WRGAVGGWRLVG	0.174	–	0.655	–
LVVYLSCVHCIN	0.0533	–	0.251	–
RSMRWTFRYWVN	0.0703	–	0.659	–
RLIQPLDVQFLN	0.225	–	0.617	–
FSMRWTVRYWVN	0.0513	–	0.454	–
KKHKWGQKQKIN	0.05	–	0.589	–
